Reference: patent publication US20210017287A1 (published 2021)

T1: TNFRSF25-Fc fusion protein (UniProt Q93038 25-199, limits assumed, biotinylated in the capture ELISA (site not stated))
T1 construct: also called TNFRSF25-Fc protein; biotinylated antigen protein; not shown: Fc part
T1 sequence (looked up): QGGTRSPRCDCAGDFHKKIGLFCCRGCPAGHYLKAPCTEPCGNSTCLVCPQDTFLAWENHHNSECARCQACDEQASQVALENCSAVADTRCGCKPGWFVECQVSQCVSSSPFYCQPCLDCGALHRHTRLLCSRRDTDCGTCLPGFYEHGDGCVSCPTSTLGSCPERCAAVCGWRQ


Each binder was assayed against T1, TNFRSF25-Fc fusion protein (assay: single point capture ELISA, scFv captured by anti-c-myc, biotinylated antigen).
Description: (§1) Primary screening of the scFv library: The primary screen consisted of a single point ELISA (SPE) assay, which was carried out using periplasmic extract (PE) of bacteria grown in 96-well (deep well) plates. Briefly, this capture ELISA involved coating individual wells of a 96-well Maxisorp Immunoplate with anti-c-myc antibody in coating buffer (200 mM Na₂CO₃/NaHCO₃) at pH 9.2 overnight at 4° C. The next day, the plate was blocked with Casein for 1 hour at room temperature. scFv PE was then added to the plate and incubated at room temperature for 1 hour. After washing, biotinylated antigen protein was added to the well and the mixture was incubated for 1 hour at room temperature. This was followed by incubation with streptavidin-horseradish peroxidase (HRP) conjugate for 1 hour at room temperature. HRP activity was detected with tetra-methyl-benzidine (TMB) substrate, and the reaction was quenched with 2M HCl. Plates were read at 450 nm. […] The scFv protein concentration was determined by comparing the ELISA signals with signals generated by the reference scFv. The binding assay was repeated once more for all positive variants under normalized scFv concentrations in order to determine the relative binding affinity of the mutant scFv and the parental antibody. Selected scFv hits displaying improved binding were re-formulated to IgG1 and tested in a caspase-3 assay as described below.

Row | OD450 [OD450] | Binder
1 | 1.6 | 43F11 (scFv, V domains shown) VH: EVQLVESGGGLSQPGNSLQLSCEASGFTFSNHDLNWVRQAPGKGLEWVAYISSASGLISYADAVRGRFTISRDNAKNSLFLQMNNLKSEDTAMYYCARDPPYSGLYALDFWGQGTQVTVSS VL: QPVLTQSPSASASLSGSVKLTCTLSSELSSFTIVWYQQRPDKAPKYVMYLKSDGSHSKGDGIPDRFSGSSSGAHRYLSISNVQSEDDATYFCGAGYTLAGQYGWVFGSGTKVTVL
2 | 0.85 | 12F7 (scFv, V domains shown, scFv; Position 12 is a library position read from the clone ID) VH: EVQLVESGGGLSQPGNSLQLSCEASGFTFSNHDLNWVRQAPGKGLEWVAYISSASQLISYADAVRGRFTISRDNAKNSLFLQMNNLKSEDTAMYYCARDPPYSGLYALDFWGQGTQVTVSS VL: QPVLTQSPSASASLSGSVKLTCTLSSELSSYTIVWYQQRPDKAPKYVMYLKSDGSHSKGDGIPDRFSGSSSGAHRYLSISNVQSEDDATYFCGAGYTLAGQYGWVFGSGTKVTVL
3 | 0.7 | 10C3 (scFv, V domains shown, scFv) VH: EVQLVESGGGLSQPGNSLQLSCEASGFTFSNHDLNWVRQAPGKGLEWVAYISSDSGLISYADAVRGRFTISRDNAKNSLFLQMNNLKSEDTAMYYCARDPPYSGLYALDFWGQGTQVTVSS VL: QPVLTQSPSASASLSGSVKLTCTLSSELSSYTIVWYQQRPDKAPKYVMYLKSDGSHSKGDGIPDRFSGSSSGAHRYLSISNVQSEDDATYFCGAGYTLAGQYGWVFGSGTKVTVL

The remaining lines, values behind:

Row | Binder | OD450 [OD450]
4 | 42H8 (scFv, V domains shown) VH: EVQLVESGGGLSQPGNSLQLSCEASGFTFSNHDLNWVRQAPGKGLEWVAYISSASGLISYADAVRGRFTISRDNAKNSLFLQMNNLKSEDTAMYYCARDPPYSGLYALDFWGQGTQVTVSS VL: QPVLTQSPSASASLSGSVKLTCTLSSELSYYTIVWYQQRPDKAPKYVMYLKSDGSHSKGDGIPDRFSGSSSGAHRYLSISNVQSEDDATYFCGAGYTLAGQYGWVFGSGTKVTVL | 1.67
5 | 66B8 (scFv, V domains shown) VH: EVQLVESGGGLSQPGNSLQLSCEASGFTFSNHDLNWVRQAPGKGLEWVAYISSASGLISYADAVRGRFTISRDNAKNSLFLQMNNLKSEDTAMYYCARDPPYSGLYALDFWGQGTQVTVSS VL: QPVLTQSPSASASLSGSVKLTCTLSSELSSYTIVWYQQRPDKAPKYVMYLKSDGSHSKGDGIPDRFSGSSSGAHRYLSISNVQSEDDATYFCGAGYTLANQYGWVFGSGTKVTVL | 0.4
6 | 42F9 (scFv, V domains shown) VH: EVQLVESGGGLSQPGNSLQLSCEASGFTFSNHDLNWVRQAPGKGLEWVAYISSASGLISYADAVRGRFTISRDNAKNSLFLQMNNLKSEDTAMYYCARDPPYSGLYALDFWGQGTQVTVSS VL: QPVLTQSPSASASLSGSVKLTCTLSSELSFYTIVWYQQRPDKAPKYVMYLKSDGSHSKGDGIPDRFSGSSSGAHRYLSISNVQSEDDATYFCGAGYTLAGQYGWVFGSGTKVTVL | 2.33
7 | 42G2 (scFv, V domains shown, scFv) VH: EVQLVESGGGLSQPGNSLQLSCEASGFTFSNHDLNWVRQAPGKGLEWVAYISSASGLISYADAVRGRFTISRDNAKNSLFLQMNNLKSEDTAMYYCARDPPYSGLYALDFWGQGTQVTVSS VL: QPVLTQSPSASASLSGSVKLTCTLSSELSWYTIVWYQQRPDKAPKYVMYLKSDGSHSKGDGIPDRFSGSSSGAHRYLSISNVQSEDDATYFCGAGYTLAGQYGWVFGSGTKVTVL | 3.19

What follows are binders tested against T1, TNFRSF25-Fc fusion protein (assay: binding ELISA of scFv clones on TNFRSF25-Fc (FIG. 10)).

Row | Bmax | Binder
8 | 1.73 | 1F10 (scFv, V domains shown, scFv; Frameworks and unchanged CDRs are those of the parental clone) VH: EVQLVESGGGLSQPGNSLQLSCEASGFTFSNHDLNWVRQAPGKGLEWVAYISSASGLISYADAVRGRFTISRDNAKNSLFLQMNNLKSEDTAMYYCARDPAYTGLYALDFWGQGTQVTVSS VL: QPVLTQSPSASASLSGSVKLTCTLSSELSNFTIVWYQQRPDKAPKYVMYLKSDGSHSKGDGIPDRFSGSSSGAHRYLSISNVQSEDDATYFCGAGYTLASQYGWVFGSGTKVTVL
9 | 1.28 | 2A5 (scFv, V domains shown, scFv; Frameworks and unchanged CDRs are those of the parental clone) VH: EVQLVESGGGLSQPGNSLQLSCEASGFTFSNHDLNWVRQAPGKGLEWVAYISSASGLISYADAVRGRFTISRDNAKNSLFLQMNNLKSEDTAMYYCARDPAYTGLYALDFWGQGTQVTVSS VL: QPVLTQSPSASASLSGSVKLTCTLSSELSNFTIVWYQQRPDKAPKYVMYLKSDGSHSKGDGIPDRFSGSSSGAHRYLSISNVQSEDDATYFCGMGYTLANQYGWVFGSGTKVTVL
10 | 1.53 | 3G4 (scFv, V domains shown, scFv; Frameworks and unchanged CDRs are those of the parental clone) VH: EVQLVESGGGLSQPGNSLQLSCEASGFTFSNHDLNWVRQAPGKGLEWVAYISSASGLISYADAVRGRFTISRDNAKNSLFLQMNNLKSEDTAMYYCARDPAYTGLYALDFWGQGTQVTVSS VL: QPVLTQSPSASASLSGSVKLTCTLSSELSGFTIVWYQQRPDKAPKYVMYLKSDGSHSKGDGIPDRFSGSSSGAHRYLSISNVQSEDDATYFCGAGYTLARQYGWVFGSGTKVTVL
11 | 1.81 | 9A5 (scFv, V domains shown, scFv; Frameworks and unchanged CDRs are those of the parental clone) VH: EVQLVESGGGLSQPGNSLQLSCEASGFTFSNHDLNWVRQAPGKGLEWVAYISSASGLISYADAVRGRFTISRDNAKNSLFLQMNNLKSEDTAMYYCARDPAYTGLYALDFWGQGTQVTVSS VL: QPVLTQSPSASASLSGSVKLTCTLSSELSGFTIVWYQQRPDKAPKYVMYLKSDGSHSKGDGIPDRFSGSSSGAHRYLSISNVQSEDDATYFCGAGYTLANQYGWVFGSGTKVTVL
12 | 1.49 | 10B8 (scFv, V domains shown, scFv; Frameworks and unchanged CDRs are those of the parental clone) VH: EVQLVESGGGLSQPGNSLQLSCEASGFTFSNHDLNWVRQAPGKGLEWVAYISSASGLISYADAVRGRFTISRDNAKNSLFLQMNNLKSEDTAMYYCARDPAYSGLYALDFWGQGTQVTVSS VL: QPVLTQSPSASASLSGSVKLTCTLSSELSNFTIVWYQQRPDKAPKYVMYLKSDGSHSKGDGIPDRFSGSSSGAHRYLSISNVQSEDDATYFCGAGYTLAGQYGWVFGSGTKVTVL
13 | 1.32 | 5E1 (scFv, V domains shown, scFv; Frameworks and unchanged CDRs are those of the parental clone) VH: EVQLVESGGGLSQPGNSLQLSCEASGFTFSNHDLNWVRQAPGKGLEWVAYISSASGLISYADAVRGRFTISRDNAKNSLFLQMNNLKSEDTAMYYCARDPAYTGLYALDFWGQGTQVTVSS VL: QPVLTQSPSASASLSGSVKLTCTLSSELSNYTIVWYQQRPDKAPKYVMYLKSDGSHSKGDGIPDRFSGSSSGAHRYLSISNVQSEDDATYFCGMGYTLANQYGWVFGSGTKVTVL
14 | 1.89 | 5A6 (scFv, V domains shown, scFv; Frameworks and unchanged CDRs are those of the parental clone) VH: EVQLVESGGGLSQPGNSLQLSCEASGFTFSNHDLNWVRQAPGKGLEWVAYISSASGLISYADAVRGRFTISRDNAKNSLFLQMNNLKSEDTAMYYCARDPPYTGLYALDFWGQGTQVTVSS VL: QPVLTQSPSASASLSGSVKLTCTLSSELSNFTIVWYQQRPDKAPKYVMYLKSDGSHSKGDGIPDRFSGSSSGAHRYLSISNVQSEDDATYFCGAGYTLANQYGWVFGSGTKVTVL
15 | 1.26 | 4B6 (scFv, V domains shown, scFv; Frameworks and unchanged CDRs are those of the parental clone) VH: EVQLVESGGGLSQPGNSLQLSCEASGFTFSNHDLNWVRQAPGKGLEWVAYISSASGLISYADAVRGRFTISRDNAKNSLFLQMNNLKSEDTAMYYCARDPAYTGLYALDFWGQGTQVTVSS VL: QPVLTQSPSASASLSGSVKLTCTLSSELSNYTIVWYQQRPDKAPKYVMYLKSDGSHSKGDGIPDRFSGSSSGAHRYLSISNVQSEDDATYFCGAGYTLANQYGWVFGSGTKVTVL

Further lines, the binder ahead of its results:

Row | Binder | Bmax
16 | W3072-z4C12-scFv (scFv, V domains shown, scFv (captured by anti-c-myc antibody); also called WT; wild-type) VH: EVQLVESGGGLSQPGNSLQLSCEASGFTFSNHDLNWVRQAPGKGLEWVAYISSASGLISYADAVRGRFTISRDNAKNSLFLQMNNLKSEDTAMYYCARDPPYSGLYALDFWGQGTQVTVSS VL: QPVLTQSPSASASLSGSVKLTCTLSSELSSYTIVWYQQRPDKAPKYVMYLKSDGSHSKGDGIPDRFSGSSSGAHRYLSISNVQSEDDATYFCGAGYTLAGQYGWVFGSGTKVTVL | 0.1
17 | 42G2 (scFv, V domains shown, scFv) VH: EVQLVESGGGLSQPGNSLQLSCEASGFTFSNHDLNWVRQAPGKGLEWVAYISSASGLISYADAVRGRFTISRDNAKNSLFLQMNNLKSEDTAMYYCARDPPYSGLYALDFWGQGTQVTVSS VL: QPVLTQSPSASASLSGSVKLTCTLSSELSWYTIVWYQQRPDKAPKYVMYLKSDGSHSKGDGIPDRFSGSSSGAHRYLSISNVQSEDDATYFCGAGYTLAGQYGWVFGSGTKVTVL | 0.447
18 | 9G2 (scFv, V domains shown, scFv; Frameworks and unchanged CDRs are those of the parental clone) VH: EVQLVESGGGLSQPGNSLQLSCEASGFTFSNHDLNWVRQAPGKGLEWVAYISSASGLISYADAVRGRFTISRDNAKNSLFLQMNNLKSEDTAMYYCARDPAYTGLYALDFWGQGTQVTVSS VL: QPVLTQSPSASASLSGSVKLTCTLSSELSWYTIVWYQQRPDKAPKYVMYLKSDGSHSKGDGIPDRFSGSSSGAHRYLSISNVQSEDDATYFCGAGYTLAGQYGWVFGSGTKVTVL | 1.04
19 | 6G11 (scFv, V domains shown, scFv; Frameworks and unchanged CDRs are those of the parental clone) VH: EVQLVESGGGLSQPGNSLQLSCEASGFTFSNHDLNWVRQAPGKGLEWVAYISSASGLISYADAVRGRFTISRDNAKNSLFLQMNNLKSEDTAMYYCARDPPYSGLYALDFWGQGTQVTVSS VL: QPVLTQSPSASASLSGSVKLTCTLSSELSNFTIVWYQQRPDKAPKYVMYLKSDGSHSKGDGIPDRFSGSSSGAHRYLSISNVQSEDDATYFCGAGYTLAGQYGWVFGSGTKVTVL | 1.32

Each binder was assayed against T1, TNFRSF25-Fc fusion protein (assay: capture ELISA of scFv, against W3072-z4C12-scFv).
Description: as §1

Row | fold increase in ELISA signal [fold] | Binder
20 | > 10 | 42G2 (scFv, V domains shown, scFv) VH: EVQLVESGGGLSQPGNSLQLSCEASGFTFSNHDLNWVRQAPGKGLEWVAYISSASGLISYADAVRGRFTISRDNAKNSLFLQMNNLKSEDTAMYYCARDPPYSGLYALDFWGQGTQVTVSS VL: QPVLTQSPSASASLSGSVKLTCTLSSELSWYTIVWYQQRPDKAPKYVMYLKSDGSHSKGDGIPDRFSGSSSGAHRYLSISNVQSEDDATYFCGAGYTLAGQYGWVFGSGTKVTVL
